The nature of the data set: amyloid nucleation score (Sup35N fusion, yeast selection) (log enrichment); library NNK2; higher = more nucleation; inactive = no reads after selection. The procedure, abridged:
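In psi-negative yeast, Sup35N fusions carrying peptides of 20 random codons were induced with 100 μM copper sulfate for 24 hours. The cells then grew 7 days at 30°C on medium lacking adenine and uracil, and plasmid inserts from input and output were Illumina-sequenced, excluding sequences with under 100 input reads. Nucleation score is the DiMSum log enrichment of output over input reads, centred on the mode score of non-aggregating sequences.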

Consider 140 substances from the supplement of paper PMC12042874.

± gives the uncertainty stated by the source.

For PDLCEFLMLYMMITLNFCIN, the amyloid nucleation score was -0.214 ± 1.

On to YHRYAAS, for which the amyloid nucleation score is -0.077 ± 0.39.

RVHRLQTEEVMYSSGSK yielded an amyloid nucleation score of 4.96 ± 0.065.

Consider WWTAQGCTELTVS, for which the amyloid nucleation score was 0.855 ± 0.27.

In the case of TIDFWVRFYVRFYSRDGFYY, the amyloid nucleation score was -2.33 ± 0.78.

As for DDYRMVIVVT, the amyloid nucleation score is -0.307 ± 0.33.

In the case of TTHLLFLFLALKNNPRTILT, the amyloid nucleation score is -0.294 ± 1.1.

In turn, MKGALWYSDKAT showed an amyloid nucleation score of 0.102 ± 1.1.

FYTYCSLGWTEAAGAVFLES displayed an amyloid nucleation score of -1.34 ± 0.75.

With RYQGLLTPVTAGRLFICIP, the amyloid nucleation score was -0.363 ± 1.1.

Consider GTRNVLIHAK, for which the amyloid nucleation score is -1.26 ± 1.1.

Turning to QLAYNEDMSVVGFCYIWYYG, the amyloid nucleation score was 6.456 ± 0.048.

On to VKASFS, for which the amyloid nucleation score was determined as 0.798 ± 0.44.

Substance TLDIALKGG displayed an amyloid nucleation score of 0.271 ± 0.25.

Take HTTGFPFRGLGDIDSLAEQF: the amyloid nucleation score was -0.217 ± 0.79.

As to LFFALSMCSIF, the amyloid nucleation score amounted to 6.348 ± 0.032.

Regarding SLVTLWLGANAR, the amyloid nucleation score was determined as 0.175 ± 0.26.

The substance TIQGLFRFSADVRTCAFMGS showed an amyloid nucleation score of 2.33 ± 0.15.

SHDAYGIYRLQ came in with an amyloid nucleation score of 0.696 ± 0.38.

Substance SYCTR yielded an amyloid nucleation score of -0.645 ± 0.56.

FGMSCWFLFFASQFSVTNNC: the amyloid nucleation score was -1.51 ± 0.76.

For YVCGRENILFFERLKS, the amyloid nucleation score is -0.327 ± 0.45.

The substance KSVKIVSSAMKGWIHSTYSR displayed an amyloid nucleation score of -0.316 ± 0.28.

In the case of KWCPLFKGSIGFSFLVHTMK, the amyloid nucleation score is -1.26 ± 1.1.

EGLLHTYCICGFLVYHYMEV: the amyloid nucleation score turned out to be 3.77 ± 0.054.

As for RRVDWDYLPLFMQAAPYSWK, the amyloid nucleation score was -0.197 ± 0.22.

RISDDWVYLLCSCKGQGFLW displayed an amyloid nucleation score of 0.157 ± 1.

Consider SRPTKYSKWILMPPCY, for which the amyloid nucleation score result was “inactive”.

In the case of MVTTSSVSNADLNVDMWLEP, the amyloid nucleation score was 1.01 ± 0.2.

CDRLSVNHFKEAGVQGSLSE: the amyloid nucleation score worked out at 0.851 ± 0.21.

Turning to VCREMSYLQ, the amyloid nucleation score is -0.809 ± 0.54.

In the case of VNFLGWSLVGKCRFQFWTVR, the amyloid nucleation score result was “inactive”.

As for IKYFY, the amyloid nucleation score was -0.939 ± 0.49.

Consider IAFKLRSTLSQPRNTCVLWH, for which the amyloid nucleation score is 0.276 ± 1.

SYVVVAPLCQCTTVSGRRGI registered an amyloid nucleation score of 1.04 ± 0.59.

For the substance LSPIVVPLYKQLDIFGVRRN, the amyloid nucleation score entry is “inactive”.

For the substance ISGVLLWIRRFKHPICEEAW, the amyloid nucleation score came out at 0.371 ± 0.56.

The substance SWFVRLGTRNWYTLRRVVIG came in with an amyloid nucleation score of -0.315 ± 0.29.

In the case of GNTHHRDGILESQPFFVTEA, the amyloid nucleation score came to 0.465 ± 0.29.

As to WVLYGASLCYPWVTSSKLRA, the amyloid nucleation score came out at 0.589 ± 0.42.

Regarding QLFTMDN, the amyloid nucleation score was -0.459 ± 0.78.

In turn, RYTWWWHSLFMSDSVAMNSA yielded an amyloid nucleation score of -0.334 ± 0.42.

Substance CNNQEMPTSGWMSCFSCALC came in with an amyloid nucleation score of 1.48 ± 0.32.

CSSENLSLLIYSIKVGNGF had an amyloid nucleation score of 3.28 ± 0.12.

In turn, RLILFAMTVLLASRGYNVRS had an amyloid nucleation score of 0.402 ± 0.21.

For FSFYLGRKSMRWCNSCWYSW, the amyloid nucleation score was -0.445 ± 0.22.

Take MNRYSKIVSQFVLAVDSTYF: the amyloid nucleation score amounted to 0.433 ± 0.74.

The substance RMTEA displayed an amyloid nucleation score of 2.32 ± 0.21.

With RVPTSNLWSGNFYTALRVTG, the amyloid nucleation score is -0.833 ± 0.63.

ELLSYRRSIKYCMGLEEPWA gave an amyloid nucleation score of -0.119 ± 0.49.

The substance STTLSEIMIYAVTGG gave an amyloid nucleation score of -0.45 ± 0.31.

With IWFSWAVCFMITFHSHTHWW, the amyloid nucleation score was 0.598 ± 0.57.

In the case of NLWRLISNLIDVMHPMYSTE, the amyloid nucleation score was -0.089 ± 1.1.

For the substance TLMKVRVYSSYGKVHVGSLA, the amyloid nucleation score worked out at 5.03 ± 0.08.

Turning to VQILSHFSADCKDDSVDQES, the amyloid nucleation score was -1.06 ± 1.1.

For the substance YIGSVIIWRRKVSRFHLGEA, the amyloid nucleation score was 0.102 ± 0.79.

In turn, LIFRSVSVSFIPLLMKDGNG came in with an amyloid nucleation score of -0.042 ± 0.74.

On to FLCLLDRVIMTLFFRIAL, for which the amyloid nucleation score stood at 0.453 ± 0.65.

Turning to RLLLEDASIVGLIITYYLMF, the amyloid nucleation score was 0.085 ± 0.8.

As to WERVKYLLDYL, the amyloid nucleation score entry was “inactive”.

For KSRIDSESGGGQSFS, the amyloid nucleation score is -0.805 ± 0.63.

In turn, VCFVWDKARAMCSFYFV returned an amyloid nucleation score of -0.596 ± 0.79.

Turning to KHSWSIALV, the amyloid nucleation score is 0.239 ± 0.65.

Substance NFSFRLYLLLETSIMYIGKT showed an amyloid nucleation score of -1.3 ± 0.38.

Consider IMFASKHCSVGVMLKIGRTF, for which the amyloid nucleation score amounted to 0.209 ± 0.33.

With YTVWEEYHRAKSSGLT, the amyloid nucleation score was 1 ± 0.33.

SPCLDGDRHVGSQMLSPLSW returned an amyloid nucleation score of 0.919 ± 0.33.

In turn, LAHGG registered an amyloid nucleation score of 3.16 ± 0.095.

In turn, GLRNDGAEVINSQPFLAHMC gave an amyloid nucleation score of 0.497 ± 0.5.

Consider LYVLTNSGPHCLCVGMMHYN, for which the amyloid nucleation score result is “inactive”.

For the substance IKHVEDASGKRTDSRLFTRD, the amyloid nucleation score was -0.545 ± 0.54.

Turning to RSFRECQDCGMQMFISRRLV, the amyloid nucleation score was found to be 0.15 ± 0.18.

The substance RSSSNWSTSGGILRYVVLPK came in with an amyloid nucleation score of -0.151 ± 0.42.

YWYWWSSWY registered an amyloid nucleation score of 1.6 ± 0.29.

As to MGLRCWKIIMWNYSRKLHQC, the amyloid nucleation score was determined as 0.031 ± 0.45.

EEMMSRYSLTVKML came in with an amyloid nucleation score of 0.391 ± 0.34.

As for WELVSGVYVTGCTFSSEDVQ, the amyloid nucleation score was -0.785 ± 0.29.

The substance GVSLFYNWPPSAFKVRYE gave an amyloid nucleation score of -0.611 ± 1.

In turn, LALSWRNDSYNLKNVLRLLG showed an amyloid nucleation score of -1.16 ± 0.28.

SYIWSECRTNMIVWASNTLK came in with an amyloid nucleation score of 3.81 ± 0.063.

Consider LLFPCFVTRSLVS, for which the amyloid nucleation score was -0.871 ± 0.32.

For SVQKIEIMYYRRKTGVYEFE, the amyloid nucleation score was found to be 3.4 ± 0.055.

MGVRY displayed an amyloid nucleation score of 1.42 ± 0.38.

For TVSIDLASIWALA, the amyloid nucleation score entry was “inactive”.

As to SIVYTLTCVL, the amyloid nucleation score was 4.945 ± 0.038.

For QKLLWCYACNVMRARSGSGT, the amyloid nucleation score turned out to be 7.18 ± 0.044.

On to KFSTLCRISYITYLFFG, for which the amyloid nucleation score came out at 6.336 ± 0.049.

Consider RDSTVFKIYCWPYNN, for which the amyloid nucleation score was 6.493 ± 0.05.

With ALLWCQMWERDRSEFPIGGF, the amyloid nucleation score was determined as 1.2 ± 0.45.

IRYPIPWFY: the amyloid nucleation score result was “inactive”.

Turning to HCCKSVRLESIRMRCGACYL, the amyloid nucleation score was determined as 0.007 ± 0.56.

DWVINS displayed an amyloid nucleation score of -0.462 ± 0.78.

The substance GKSEVGLGVGEHMQSEHGGS yielded an amyloid nucleation score of -0.055 ± 0.49.

For CLSASTALREGFWNPWRCGS, the amyloid nucleation score is 0.164 ± 0.8.

For the substance IIHDLSSFRKCSLHPDIGSS, the amyloid nucleation score is -0.373 ± 0.37.

In turn, VFPMNELMASTVNKA had an amyloid nucleation score of 6.274 ± 0.033.

On to FGDWWSI, for which the amyloid nucleation score is -1.1 ± 0.63.

VWSRRYTLVGFTSVVPSNDN came in with an amyloid nucleation score of 0.3 ± 0.37.

In turn, MHDYFLVQ returned an amyloid nucleation score of -0.487 ± 0.42.

The substance FKSLVSMVENDWMS showed an amyloid nucleation score of -0.855 ± 0.44.

Regarding SILDATCCLGFYKVFAVGMK, the amyloid nucleation score was -0.669 ± 0.44.

Consider NIIFLGVGSVFKNWRTTILS, for which the amyloid nucleation score amounted to 4.02 ± 0.049.

Take HFKSDSSSSEMTRLVEPGGV: the amyloid nucleation score is -0.125 ± 0.63.

In the case of LYRSSLRFMPTIICETVWMY, the amyloid nucleation score result was “inactive”.

As for MWTLLVKSTKGAHGQYSVMH, the amyloid nucleation score was determined as 0.397 ± 0.22.

Turning to LNSYPASV, the amyloid nucleation score entry is “inactive”.

In turn, WCHVSLMYRGYLKSGARDGN yielded an amyloid nucleation score of 0.199 ± 0.43.

WKTKISSSSCRSGNRSEPNA showed an amyloid nucleation score of 0.281 ± 0.29.

LTHSRNLRKVRTNRNNETHV: the amyloid nucleation score worked out at 0.005 ± 1.

The substance NELCRKPLNLGCISSYVFIE gave an amyloid nucleation score of -0.584 ± 0.3.

In the case of NFLADCLDGSANAIWVHVAS, the amyloid nucleation score was determined as 0.57 ± 0.23.

Turning to DMYLRIS, the amyloid nucleation score entry is “inactive”.

Consider YFILVLVESLHPSGVPAFWC, for which the amyloid nucleation score is -0.103 ± 0.65.

In the case of EYRSDCMDYLGDVCWCPNIL, the amyloid nucleation score result is “inactive”.

TVNCLGIFSRFLCLNWASWL showed an amyloid nucleation score of 3.53 ± 0.15.

In turn, CIRAECVKLYL had an amyloid nucleation score of 6.11 ± 0.087.

On to KCDYPGFWMPGQSYKDSILD, for which the amyloid nucleation score was -1.61 ± 1.1.

Consider GRKTDFHFDVRFAWGDNGFS, for which the amyloid nucleation score result was “inactive”.

The substance GGIAACPGLEINWKFDLVQW gave an amyloid nucleation score of 0.914 ± 0.32.

Substance NTRCRSVTLMLGFSMESKVH had an amyloid nucleation score of 0.76 ± 0.54.

LGRQWFRIARGG came in with an amyloid nucleation score of 0.654 ± 0.32.

Consider IFSISNFAITVSNTLTV, for which the amyloid nucleation score came out at 1.06 ± 0.32.

The substance NPLQRTVYWFIIKRDCFHSV yielded an amyloid nucleation score of -1.46 ± 0.45.

As to NFYFLIRLKAFSCLRIENWF, the amyloid nucleation score was found to be 2.28 ± 0.061.

The substance RSLDIARAY registered an amyloid nucleation score of -1.06 ± 0.4.

For QGPHARRHPTFRHKLYVLVI, the amyloid nucleation score amounted to 3.54 ± 0.099.

For the substance NSELLFLGVEWNRT, the amyloid nucleation score is -0.142 ± 0.79.

On to LSFVVL, for which the amyloid nucleation score is -0.67 ± 1.1.

For the substance SIHEMYFKAMDSVH, the amyloid nucleation score was -0.276 ± 0.62.

The substance TFSVSSYRNLP registered an amyloid nucleation score of -0.06 ± 0.79.

The substance GFSEL registered an amyloid nucleation score of 0.306 ± 0.65.

In turn, CTHHKCVWGIWSTFSVDSEL yielded an amyloid nucleation score of -0.288 ± 1.1.

In the case of FCGFNDPGRD, the amyloid nucleation score result is “inactive”.

The substance NPGGMQDEQEVVIWAPTRFL came in with an amyloid nucleation score of -0.161 ± 0.39.

RMNFLA displayed an amyloid nucleation score of -0.145 ± 0.5.

STSQWYRVLVRVVCSPM yielded an amyloid nucleation score of 0.331 ± 0.4.

For the substance RRVSAIYYRSLCCLAHYFRL, the amyloid nucleation score stood at 0.219 ± 1.

Substance MLSQASKT returned an amyloid nucleation score of -0.84 ± 1.1.

As to AYMYTMGYRSHHVTEVVVIW, the amyloid nucleation score was -0.047 ± 0.49.

Substance SWWTMWLLTRLRNSSSWGMT returned an amyloid nucleation score of 0.011 ± 0.23.
